Measurements published in the nanobody polyreactivity screen of Harvey et al. (2022).

Test: yeast display, Sf9 membrane polyspecificity reagent, FACS + sequencing; frameworks hold sequencing errors
In short: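 Polyreactivity labels are assigned by the sorting gate from which each nanobody was recovered. The gates were low and high (top ~1%), set on anti-HA fluorescence for expression and streptavidin fluorescence for reagent binding. Before sorting, galactose-induced (36–48 hours) yeast display cells were stained for 1 hour at 4 °C with 10% biotinylated, detergent-solubilized Sf9 membrane reagent.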

| Sequence | polyreactivity (PSR sort gate) |
| --- | --- |
| QVQLVESGGGLVQAGGSLRLSCAASGSISTVYAMGWSRQAPGKERELVAAISWSGGSTYYADSVKGRFTISRDNAKNTDYLQMNSLKPEDTAFYYCAVRGLLYHSYYSVRYDYWGQGTQVTVSS | high polyreactivity |
| QVQLVESGGGLVQAGGSLRLSCAASGRTFPTNAMGWYRQAPGKERELVARITWSGGSTYADSVKGRFTISRDNAKNTVYFQMNSLKPEDTAVYYCAARGYKPQFPWRRYDYWGQGTQVTVSS | high polyreactivity |
| QVQLVESGGGLVQAGGSLRLSCAASGSIFFVYAMGWYRQAPGKERELVAGISGRDGSTYYADSVKGRFTISRDNAKNTVYLQMNSLKPEDTAVYYSARVYWGQGTQVTVSS | low polyreactivity |
| QVQLVESGGGLVQAGGSLRLSCAASGGTISRYGMGWYRPAPRKERELVAAITRSGSTNYADSVKERFTISRDNAKYTVYLQMNSLKPEDTAVYYGATDKRGRIGGTFDYWGQGTQVTVSS | low polyreactivity |
| QVQLVESGGGLVQAGGSLRLSCAASGSTFWDNAMGWYRQAPGKERELVAAITAIGGTTYYADSVKGRFTISRDNAKNTVYLQMNSLKPEDTAVYYCAADWTTYGFSYFSIYYYWGQGTQVTVSS | low polyreactivity |
| QVQLVESGGGLVQAGGSLRLSCAASGFTFTRYAMGWYRQAPGKERELVAAISSRGGSTNYADSVKGRFTISRDNAKNTVYLQMNSLKPEDTAVYYCAAEYYRLRYEYDYWGQGTQVTVSS | high polyreactivity |
| QVQLVESGGGLVQAGGSLRLSCAASGRTFGYYAMGWYRPEHGTERELVAAITRTGGSTHYADSVKGRFTISRDNAKNTVYLQMNSLKPEDTAVYYCARDYRYTIPYDYWGQGTQVTVSS | low polyreactivity |
| QVQLVESGGGLVQAGGSLRLSCAASVFISSWYDMGWYRQAPGKERQLVAAIRSSGGNTYYADSVKGRFTISRDNAKNTVYLQMNSLKPEDTAVYYCAKDWKSEDGGYYWGQGTQVTVSS | high polyreactivity |
| QVQLVESGGGLVQAGGSLRLSCAASGRTFQPNVMGLFRQEPGKESELVAAISWSGASTYYADSVKGRFTISRDNAKNTVYLQMNSLKPEDTSVYYCAAEFPFPPACDYWGQGTQVTVSS | low polyreactivity |
| QVQLVESGGGLVQAGGSLRLSCAASGRTFGGYAMGWYRQAPGKERELVAAIRRSGGSTYYADSVKGRFTISRDNAKNTVYLQMNSLKPEDTAVYYCNVLRFSTGGYRYVYDYDYWGQGTQVTVSS | high polyreactivity |
| QVQLGESGGGLVQAGGSLRLSCAASGFIFSYNAMGWYRQAPWKERELVAAISWRGGSTYYADSVKGRFTISRDNAKNTVYLQMNSLKPEDTAVYYCAAYLWRLWPSGYYYWGQGTQVTVSS | high polyreactivity |
| QVQLVESGGGLVQAGGSLRLSCAASGNSFYFYAMGWYRQAPGKERELVAAIDLTDGSTYYADSVKGRFTISRDNAKNTVYLQMNSLKPEDTAVYYCAADWVTFYSYTEYDYWGLGTQVTVSS | low polyreactivity |
| QVQLVESGGGLVQAGGSLRLSCAASGNTFYRNAMGWYRQAPGKERELVAAISTTGVSTYYADSVKGRFTISRDNAKNTVYVQMTSLKPEDTAVYYCAAEIIGYHTIYDYWGQGTQVTVSS | low polyreactivity |
| QVQIVESGGGLVQAGGSLRLSCAASGRTVVYNSMGWYRQAPGKERELVAAITRSGDSSYYADSVKGRFSISRDNAKNPVYLQMNSLKPEDTAVYYCNAVSKRYWLMDYWGQGTQVTVSS | high polyreactivity |
| QVQLVESGGGLVQAGGSLRLSCAASGRTFWTNAMGWYRQAPGKERELVAAISYRAGSTYYADSVKGRFTISRDNAKNTVYLQMNSLKPEDTAVYYCATRAVYYYAGFDYWGQGTQVTVSS | high polyreactivity |
| QVQHVESGGGLVQAGGSLRLSCAASGTIFTVYAMGWYRQAPGKERELVAAITRNGGRTYYADSVKGRFTISRDNAKNTVYLQMNSLKPEDTAVYFCAAPGLYSRLDYWGQGTQVTVSS | high polyreactivity |

| Sequence | polyreactivity (PSR sort gate) |
| --- | --- |
| QVQLVESGGGLVQAGGSLRLSCAASGSTFGYNAMGWYRQAPGKERELVAAISYIGGSTYYADSVKGRFTISRDNAKNTVYLQMNSLKPEDTAVYYCNAAVRYYDRTVSPVKFDYWGQGTQVTVSS | high polyreactivity |
| QVQLVESGGGLVQAGGSLRLSCAASGSIDWNAMGWYRQAPGKEREFVAAISSSGGRTSYADSVKGRFTISRDNAKNTVYLQMNSLKPEDTAVYYCAAAGSYDGDRYYYWGQGTQVTVSS | high polyreactivity |
| QVQLVESGGGLVQAGGSLRLSCAASGSTFAVNAMGWYRQAPGKERELVAAISGSGGRTYYADSVKGRFTISRDNAKNTVYLQMNSLKPEDTAVYYCATELRASYRSSGAYHYDYWGQGTQVTVSS | low polyreactivity |
| QLQLVESGGGLVQAGGSLRLSCAASGGPFRPYAMGWYRQAPGKERELVAAISYTGSTYYADSVKGRFTISRDNAKNTVYLQMNSLKPEDTAVYYCAKDFWYPPRFDYWGQGTQVTVSS | low polyreactivity |
| QVQLVESGGGLVQAGGSLRLSCAASGFIFSYYAMGWYRPAPGKEREFVAAISRRGGSTYYADSVKGRFTISRDNAKNTVYLQMNSLKPEDTAVFYCARRRTSTAVREHYYRDWYGYDFWGQGTQVTVSS | high polyreactivity |
| QVQLVESGGGLVQAGGSLRLSCAASGGTFTGYAMGWYRQAPGKERELVAAIRSRGGSTYYADSVKGRFTISRDNAKNTVYLQLNSLKPEDTAFYYCNAVSRFSYGYDYWGQGTQVSVSS | high polyreactivity |
| QVQLVESGGGLVQAGGSLRLSCDASGSIFYDNAKGWYRQAPGKERELVATIRGGGNTYYADSVKGRFTISRDNAKNTVYLQMNSLKPEDTAVNYCAKQSDFPVVPLVYGVYGYDYWGQGTQVTVSS | low polyreactivity |
| QVQLVESGGGLVQAGGSLRLSCAASGTIFPTYAMGWYRQAPGKERELVAAISSIVGGTYYAHSVKGRFTISRDNAKNTVYLQMNSLKPEVTAVYYCAAPEDKYQHCIYGAYGVDYWGQGTQVTVSS | low polyreactivity |
| QVQLVESGGGLVQAGGSLRISCAASGITFYGYAMGRYRQAPGKERELVATISKSGGITSYADSVKGRFTISRDNAKNTVYLQMNSLKPEDTAVYYCNRGKSYGGYDYWGQGTQVTVSS | low polyreactivity |
| QVKLVESGGGLVQAGGSLRLTCAASGSTFGPYAMGWYRQEPGKERELVSTITRNGGSTYYADSVKGRFTISRDNAKNTVYLQMNSLKPEDTAVYYCNAEGRWSSFTQRMDYWGQGTQVTVSS | low polyreactivity |
| QVQLQESGGGLVQAGGSLRLSCAASGTISDSGLMGWYRQAPGKERELVAGISSGGITNYADSVKGRFTISRDNAKKTVYLQMNSLKPEDTAVYWGQGTQLTVSS | low polyreactivity |
| QVQLRESGAGGRQPAPELRGERQYFYWSADGLVSQAPGKEREFVAGIDRGTITNYADSVRGRFTISRDNAKKTVYLQMNSLKPEDTAVYYCAVPAYGDPSSYYWGQGTHVTVSS | high polyreactivity |
| QVQLVESGGGLVQAGGSLRLSCADSGRTFRRYKMGWYRQAPGKERELVATISSGGSTYADSVKGRFTISRDNAKNTVYLQMNSLKPEDTAVYYCAARYDVAWYSKRYSWGQGTQVTVSS | high polyreactivity |
| QVHLVESGGGLVQAGGSLRLSCAASGSTFFYAMGWYRQAPRKERELVAAISWIDSLTYYADSVKGRFTISRDNEKITVYLQMNILKAEDTAFYYCAAEGQNEGYDYWGQGSQVTVSS | high polyreactivity |
| QVQLVESGGGLVQAGGSLRLSCAASGLNFYYYTMGWYREAPGKERELVATISRSGTSTNYADSVKGRFTISRDNAKNTVYLQMNSLKPEDTAVYYCAAVLRWRDLFSEYYYLGQGTQVTVSS | high polyreactivity |
| QVQLVESGGGLVQAGGSLRLSCAASGSTFAGNAMGWYRHAPGKERELVAAIDSSTGSTYYADSVKGRFTISLDNAKNTVYLQMNSLKPEDTAVYYCNKTSFLVKLDFWGQGTQVTVSS | low polyreactivity |
